Substitutions are numbered along the chain they refer to. Values belong to the binder of their own block, whether it stands above or below them.
Key:
[1] = target: T1, recombinant soluble human TREM2 protein (human TREM2 ECD-FlagHis) (human, UniProt Q9NZC2 19-174); experiment: Octet BLI binning; competitor: load Ab 4G10
T1 sequence: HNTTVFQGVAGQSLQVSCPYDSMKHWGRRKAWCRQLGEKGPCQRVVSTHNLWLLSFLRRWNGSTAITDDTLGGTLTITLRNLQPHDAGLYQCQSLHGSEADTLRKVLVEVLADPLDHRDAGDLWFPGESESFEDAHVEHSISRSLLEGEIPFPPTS
Description: (§1) Each of sixteen different anti-TREM2 antibodies produced from hybridomas were quantitated and loaded onto one of the anti-human Fc sensors at 5 μg/mL for 2 minutes (“Load Antibody”). The sensor was then blocked with 100 μg/mL of an irrelevant human IgG2 antibody for 5 minutes. […] Next, each of the sixteen different anti-TREM2 antibodies (“Sandwich Antibody”) was added to the sensor at 5 μg/mL and allowed to bind for 5 minutes. All assay buffers contained 10 mM Tris (pH 7.6), 0.1% Triton X-100, 150 mM NaCl, 1 mM CaCl₂, and 1 mg/mL BSA. The assay was conducted at 25° C. Experimental kinetic results were fit to a 1:1 binding model.
(§2) However, if addition of the sandwich antibody produces a binding event, then the sandwich antibody binds to a different epitope on human TREM2 than the load antibody and the two antibodies are categorized into different epitope bins.

[2] = target: T1, recombinant soluble human TREM2 protein …; experiment: Octet BLI binning; competitor: load Ab 4C5
Description: as §1, §2

[3] = target: T2, recombinant soluble cynomolgus TREM2 protein (cynomolgus TREM2 extracellular domain coupled to a Flag/His tag) (cynomolgus, UniProt A0A2K5UY34 49-204); experiment: Octet BLI, antibody on anti-human Fc sensor, 25 C
T2 construct: extracellular domain; also called Cyno TREM2
T2 sequence: T1 sequence with A10E, W60R, L89F, F125V
Description: (§3) To quantitate the binding affinity of agonist antibodies for human TREM2, association and dissociation rate constants as well as the equilibrium dissociation constant were determined using anti-human Fc (Kinetic) sensors on an Octet® HTX instrument (Pall ForteBio). Agonist anti-TREM2 antibodies were made up in DMEM null media, 250 μL at 10 μg/mL. The, 250 uL of assay buffer (10 mM Tris (pH 7.6), 0.1% Triton X-100, 150 mM NaCl, 1mM CaCl₂, and 1 mg/mL BSA) was added to the antibody solutions to a final volume of 500 μL and final antibody concentration of 5 μg/mL. The anti-human Fc sensor was pre-incubated in 200 μL of the assay buffer for a minimum of 10 minutes. The sensor was then regenerated for 5 seconds in 10 mM glycine pH 1.5. Test agonist anti-TREM2 antibodies were loaded onto the sensor for 2 minutes, and baseline measurements were taken for 2 minutes. […] The recombinant TREM2 proteins were allowed to associate with the antibody-loaded sensor for 10 minutes, and then dissociation was measured for 10 minutes. The assay was conducted at 25° C. Experimental kinetic results were globally fit to a 1:1 binding model in order to determine the association and dissociation rate constants as well as the equilibrium dissociation constant.

[4] = target: T1, recombinant soluble human TREM2 protein …; experiment: Octet BLI, antibody on anti-human Fc sensor, 25 C
Description: as §3

[5] = target: T1, recombinant soluble human TREM2 protein …; experiment: Octet BLI binning; competitor: load Ab 10E3
Method in brief: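 Binding of the sandwich antibody after the load antibody places the pair in different epitope bins. Sensors carried load antibody captured via anti-human Fc, blocked with irrelevant human IgG2, then exposed to sandwich antibody at 5 μg/mL for 5 min at 25° C.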

sandwich binding signal [1]: -0.008
sandwich binding signal [2]: 0
Kd [3]: 11.3 nM
Kd [4]: 10.3 nM
sandwich binding signal [5]: -0.024
B1: 10E3 (antibody, human IgG2, V domains shown)
VH: EVQLVQSGAEVKKPGESLMISCKGSGYSFTNYWIGWVRQMPGKGLEWMGIIYPGDSDTRYSPSFQGQVTISADKSISTAYLQWSSLKASDTAMYFCARRRQGIWGDALDIWGQGTLVTVSS
VL: EIVMTQSPATLSVSPGERATLSCRASQSVSSNLAWFQQKPGQAPRLLIYGASTRATGIPARFSVSGSGTEFTLTISSLQSEDFAFYYCLQDNNWPPTFGPGTKVDIK
notes: human IgG2 from hybridoma

Kd [3]: 8.71 nM
Kd [4]: 11 nM
sandwich binding signal [5]: -0.019
B2: 13E7 (antibody, human IgG2, V domains shown)
VH: B1 VH with N31S, I110F
VL: B1 VL with F85V
notes: human IgG2 from hybridoma

Kd [3]: 1.6 nM
Kd [4]: 2.1 nM
sandwich binding signal [5]: 0.222
B3: 5E3 (antibody, human IgG2, V domains shown)
VH: QVQLVQSGAEVKKPGASVKVSCKASGYTFTGYYIHWVRQAPGLGLEWMGWINPYSGGTTSAQKFQGRVTMTRDTSISSAYMELSRLRSDDTAVYYCARDGGYLALYGTDVWGQGTTVTVSS
VL: DIQMTQSPSSLSASVGDRVTITCRASQGISNYLAWFQQKPGKAPKSLIYAASSLQSGVPSKFSGSGSGTDFTLTISSLQPEDFATYYCQQYSTYPFTFGPGTKVDIK
notes: human IgG2 from hybridoma

Kd [3]: 2.5 nM
Kd [4]: 2.6 nM
sandwich binding signal [5]: 0.051
B4: 6E7 (antibody, human IgG2, V domains shown)
VH: EVQLVQSGAEVKKPGESLKISCKGSGYSFTSYWIAWVRQMPGKGLEWMGIIYPGDSDTRYSPSFQGQVTISADKSISTAYLQWSSLKASDTAMYFCARQRTFYYDSSDYFDYWGQGTLVTVSS
VL: DIQMTQSPSSVSASVGDRVTITCRASQGISSWLAWYQQKPGKAPKLLIYAASSLQNGVPSRFSGSGSGTDFTLTISSLQPEDFATYFCQQADSFPRTFGQGTKLEIK
notes: human IgG2 from hybridoma

— patent US20220204611A1 (Amgen, published 2022)
